These substances were tested against arhg7_human ARHGEF7 (UniProt Q14155).
UniProt Q14155, sequence (Q14155 whole entry): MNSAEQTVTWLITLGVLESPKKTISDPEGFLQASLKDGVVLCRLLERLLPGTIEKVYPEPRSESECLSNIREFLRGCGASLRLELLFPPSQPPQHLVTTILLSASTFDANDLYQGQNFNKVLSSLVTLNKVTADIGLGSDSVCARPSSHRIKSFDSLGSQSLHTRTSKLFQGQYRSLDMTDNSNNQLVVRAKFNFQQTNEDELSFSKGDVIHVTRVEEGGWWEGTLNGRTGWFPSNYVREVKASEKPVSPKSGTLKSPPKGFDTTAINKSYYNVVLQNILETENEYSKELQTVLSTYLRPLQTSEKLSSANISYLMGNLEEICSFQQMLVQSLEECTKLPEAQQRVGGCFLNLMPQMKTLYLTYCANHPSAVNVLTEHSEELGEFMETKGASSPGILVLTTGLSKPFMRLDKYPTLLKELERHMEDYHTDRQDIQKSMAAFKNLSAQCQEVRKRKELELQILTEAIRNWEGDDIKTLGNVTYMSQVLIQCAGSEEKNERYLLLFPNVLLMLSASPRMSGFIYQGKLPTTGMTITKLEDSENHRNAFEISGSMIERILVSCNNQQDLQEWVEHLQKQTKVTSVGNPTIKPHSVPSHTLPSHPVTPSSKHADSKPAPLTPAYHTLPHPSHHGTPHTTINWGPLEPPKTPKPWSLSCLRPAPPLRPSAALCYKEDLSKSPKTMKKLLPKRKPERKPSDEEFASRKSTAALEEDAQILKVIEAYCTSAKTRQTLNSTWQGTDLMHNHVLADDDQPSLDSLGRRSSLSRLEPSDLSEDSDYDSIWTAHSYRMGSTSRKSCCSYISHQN

effect of a mutation on the interaction | Substance
decreasing interaction | Leucine-rich repeat serine/threonine-protein kinase 2 (Homo sapiens), Q5S007 N1437S
decreasing interaction | Leucine-rich repeat serine/threonine-protein kinase 2 (Homo sapiens), Q5S007 R1441C
decreasing interaction | Leucine-rich repeat serine/threonine-protein kinase 2 (Homo sapiens), Q5S007 T1348N
